Source: patent US9284369B2, “Inhibition of angiogenesis” (Genentech, Inc., priority 2007, dated 2016)

B1: Bv8: recombinant Bv8 (Prokineticin-2) protein, PeproTech (protein)
chain: AVITGACDKDSQCGGGMCCAVSIWVKSIRICTPMGKLGDSCHPLTRKVPFFGRRMHHTCPCLPGLACLRTSFNRFICLAQK

How the values were obtained:
Bv8 protein levels = experiment: Serum Bv8 in A673 tumor-bearing mice treated with cisplatin; assay type: in vivo, mouse; details: cisplatin 5 mg/kg, alone or in combination with anti-VEGF
Experimental: FIG. 6. […] Anti-Bv8 treatment is mostly effective when treatment is initiated early in tumor development. […] Mice were then treated with control, anti-Bv8, anti-VEGF or combination (anti-VEGF plus anti-Bv8) of antibodies. Tumor volume was measured as described. * indicates significant difference (p<0.05) in tumor volume between combination therapy vs. anti-VEGF monotherapy. c&d. […] Nude mice (c) and C57B1/6 (d) mice were implanted with EL4 cells and underwent treatment with control, anti-Bv8, anti-VEGF or the combination. Tumor volume and terminal tumor weight were measured as described. * indicates significant difference […] in tumor volume in control vs. each monotherapy or the combination therapy. Differences in tumor volume are also significant when comparing combination vs. each monotherapy. e. Cisplatin and anti-VEGF treatment increase Bv8 concentration in the serum. Beige nude mice were implanted with A673 cells and were treated with PBS, cisplatin (5 mg/kg) plus control antibody, cisplatin plus anti-Bv8, or cisplatin plus anti-VEGF or the combination cisplatin, anti-Bv8 and anti-VEGF. Serum Bv8 protein concentrations were measured by ELISA. f. Chemotherapy plus anti-VEGF and anti-Bv8 can effectively suppress tumor growth in established A673 tumors. […]

[1] = tested on: A673, HM7, HPAC and Calu6 cells; experiment: Tumor cell proliferation assay (BrdU incorporation); assay type: cell-based, human; details: range of concentrations
Experimental: A673, HM7, HPAC and Calu6 cells were trypsinized and washed in media containing 0.5% FBS before seeding into 96-well black Viewplate (Packard Bioscience Company, Meriden, Conn.). Cells were incubated with various amounts of Bv8 (PeproTech Inc., Rocky Hill, N.J.) for 3 days. 10% FBS-containing media served as a positive control. Cell proliferation was assessed by BrdU incorporation using the Cell Proliferation ELISA kit (Roche).

p44/42 MAPK = experiment: MAPK phosphorylation in TAECs (Western blot); assay type: cell-based, mouse
Experimental: TIB42-TAEC cells were starved for 6 hr in basal media supplemented with 0.5% BSA. Cells were then stimulated with human recombinant Bv8 (200 ng/ml; PeproTech), Complete Media (CM), VEGF (100 ng/ml; PeproTech) or BSA (0.5%). Cell extracts were collected at the indicated time-points. Western blot analysis of the extracts from TIB42-TAEC cells was performed using PhosphoPlus p44/42 MAPK™ antibody kit (Cell signaling).

human neutrophils = experiment: Chemotaxis of peripheral blood neutrophils; assay type: cell-based
Experimental: 10^6 cells were washed with HBSS containing 0.2% BSA before putting into transwell insert with 5 μm pore size (Corning Incorporated, Lowell, Mass.). In the lower chamber, media alone or media with various cytokines at various concentrations (maximum at 200 ng/ml) was added. After 3 hr at 37° C., cells in the lower chamber were transferred, mixed with 9 ml ZPAK solution and counted on Z2 Coulter Particle Count and Size Analyzer (Beckman Coulter, Fullerton, Calif.).

PKR1/EG-VEGFR1 = target: T1, PKR1/EG-VEGFR1 (Homo sapiens, UniProt Q8TCW9); experiment: Bv8 bioactivity assay, GeneBLAzer NFAT-CHO cells transfected with PKR1/EG-VEGFR1; assay type: cell-based; details: Bv8 0.2-200 ng/ml; VEGF-A up to 200 ng/ml
T1 construct: host or cells: GeneBLAzer NFAT-CHO cells
T1 sequence (Q8TCW9 whole entry): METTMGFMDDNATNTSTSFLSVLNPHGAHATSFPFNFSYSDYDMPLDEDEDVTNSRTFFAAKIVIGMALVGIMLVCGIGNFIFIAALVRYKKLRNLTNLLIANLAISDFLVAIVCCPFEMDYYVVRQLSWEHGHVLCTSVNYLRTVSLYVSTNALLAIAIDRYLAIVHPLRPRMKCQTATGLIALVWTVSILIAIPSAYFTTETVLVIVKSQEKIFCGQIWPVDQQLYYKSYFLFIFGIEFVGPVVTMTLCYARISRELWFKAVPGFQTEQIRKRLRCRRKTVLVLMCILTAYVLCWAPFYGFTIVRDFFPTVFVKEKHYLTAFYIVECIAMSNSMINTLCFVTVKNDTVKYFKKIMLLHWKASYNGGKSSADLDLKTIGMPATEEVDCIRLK
Experimental: The GeneBLAzer® NFAT-CHO cells were obtained from Invitrogen Corporation (Carlsbad, Calif.). Cells were stably transfected with PKR1/EG-VEGFR1 and grown in DMEM (high glucose) containing 10% dialysed serum, 0.1 mM NEAA, 2 mM GlutaMax™ (Gibco), 1 mM sodium pyruvate, 10 μg/ml Zeocin, 500 μg/ml hygromycin. Cells were plated into 96-well Viewplate (Packard) with 2.5×10^4 in […] in 1% DMEM overnight at 5% CO2, 37° C. On the following day, cells were treated with various column fractions that were concentrated with Microcon Centrifugal Filter Devices (Ultracel YM-3) from Millipore. 0.2-0.02 ng/ml hBv8 (Peprotech Inc.) prepared in 1% DMEM was used as a positive control. One hour later, media was removed and replaced with […] Hank's solution containing 0.1% BSA and 6× loading buffer containing 1 mM CCF4 (Invitrogen Corporation). Plates were incubated for 1.5 hr at room temperature in the dark and read on Wallac plate reader at excitation wavelength of 410 nm and emission wavelength of 450/520 nm. Negative controls were cells with no ligand added and control media alone. CHO cells were stimulated with recombinant human Bv8 or pooled fractions for 1 hr before adding the β-lactamase substrate CCF4. To assess the specificity of the column fractions, anti-Bv8 antibodies 2B9 and 3F1 were added at […].

CD11b+Gr1+ myeloid cells = experiment: Trans-well migration of BM CD11b+Gr1+ cells; assay type: cell-based, mouse; details: comparable to SDF-1
Experimental: BMMNCs were isolated from naïve Beige nude mice and the CD11b+Gr1+ population was sorted using CD11b microbeads (Miltenyi Biotech, CA) according to protocols provided by the manufacturer. An aliquot of the sorted cells were stained with anti-CD11bAPC and antiGr1-PE to ensure the purity (100%) of CD11b+Gr1+ cells. For migration assay, 2.0×10^5 cells were plated on the top chamber of transwells (Corning Incorporated, NY). The bottom chambers contained 600 μL of media (IMDM (Gibco BRL, CA) supplemented with BIT (Stem Cell Technologies, BC, Canada) containing human Bv8, control antibody, and murine recombinant VEGF in separate wells. Cells were incubated at 37° C. and 5% CO2 for 9 hrs and migration of CD11+b+Gr1+ cells was evaluated by counting the cells in the bottom chamber.

[2] = tested on: Lin- and CD11b+Gr1+ BM cells; experiment: Bv8 treatment of Lin- and CD11b+Gr1+ BM cells; assay type: cell-based, mouse
Experimental: Supplemental FIG. 3. a. Bv8 induces trans-well migration of CD11b+Gr1+ myeloid cells. Controls were PBS or media alone. b&c. Expression of Bv8 receptors in BMMNCs. Beige nude mice were implanted with A673, HM7, HPAC or Calu-06 cells as described. After 10 days, CD11b+Gr1+ myeloid cells were isolated from the BM and Taqman™ analysis was performed to investigate EG-VEGFRs expression in myeloid and non-myeloid (CD11b−Gr1−) subsets of tumor versus Matrigel™-implanted mice. […] Bv8 alters the fate of the progenitor population to myeloid cells (CD11b+Gr1+) and also inhibitors cell death in the Lin-population. The Lin-fraction, isolated from the BMMNCs of beige nude mice, was incubated with Bv8 for 5 days and the frequency of CD11b+Gr1+ cells was evaluated in a FACSCalibur machine. In addition, 7AAD staining was employed to measure the number of dead cells in each treatment. e. Bv8 induces clonogenic capacity of progenitor cells. Lin-population were treated with Bv8 or PBS for 5 days and were plated on methylcellulose (7500 cells per well) and were incubated in 5% CO2 and 37° C. for 15 days. […] L Bv8 is a survival factor for myloid populations. The CD11b+Gr1+ cells, isolated from the BMMNCs of beige/nude mice, were cultured in media and were treated with Bv8 (300 ng/ml) for 5 days. Cell death was measured in a FACSCalibur machine using 7AAD staining. g&h. […] Mice were implanted with A673 (e) or HM7 (f) tumors and were treated with anti-Bv8 or control antibodies as described. Treatment was stopped at day 7 after implantation, as indicated by arrow in the figure. i&j. Discontinued treatment of anti-Bv8 results in rebound of CD11b+Gr1+ cells to A673 (i) and HM7 (j) tumors.
However, the precise contribution of R1 vs. R2 in mediating Bv8 signaling in BMMNCs remains to be determined. […] To further characterize the effects of Bv8 on the cells of the hematopoietic system, both lineage depleted (Lin— that is devoid of CD11b+Gr1+ cells) and CD11b+Gr1+ cells were isolated from the BM of naïve mice and were treated with recombinant Bv8.

TIB42-TAEC cells = experiment: In vitro tube formation of tumor-associated endothelial cells; assay type: cell-based, mouse; details: Bv8 200 ng/ml, VEGF-A 100 ng/ml, 36 hours
Experimental: Tumor associated endothelial cells (TAECs) were isolated using a magnetic beads sorting system (Miltenyi Biotech), essentially as previously described (Hida et al., Cancer Res 64:8249-8255 (2004)). Briefly, TIB42 mouse lymphoma cells were injected into the dorsal lateral flanks of female beige nude mice. When tumors reached a diameter of […], they were excised, minced and then digested with collagenase II (Worthington Biochemical Corporation). Cell suspensions were than filtered using 100 μm to 40 μm meshes. CD31^+ cells were finally sorted using a FITC-CD31 antibody (BD Biosciences) according to the manufacturer's instructions. CD31+ cells were seeded in gelatin coated plates in the presence of EGM-2MV media (Cambrex). After 24 hs in culture CD31+ non-adherent cells were removed by washing several times with PBS.
For in vitro tube formation, TIB42-TAEC cells (passages 6-8) were starved for 5 hs in serum free medium. After this, cells were collected and resuspended in serum free medium supplemented with 5% BSA and treated with VEGF-A (100 ng/ml), Bv8 (200 ng/ml) or no addition (control). For specificity tests, Bv8, was incubated in the presence of anti-Bv8 Mabs (10 μg/ml). 5×10^5 cells were seeded in each well of a 24 well pre-coated with Matrigel™ (BD Biosciences) and tube formation was evaluated after 36 hours.

Row | stimulation of PKR1/EG-VEGFR1 transfected CHO cells (PKR1/EG-VEGFR1) | Molecule | Bv8 level in the serum (Bv8 protein levels) | effect on proliferation of tumor cell lines [1] | effect on proliferation of tumor cell lines ([1]; listed as recombinant Bv8) | MAP kinase phosphorylation in TAECs (p44/42 MAPK) | concentration of maximal stimulation (human neutrophils) [pM] | maximal stimulation of chemotaxis above control (human neutrophils; 3 hr) [fold] | migration of BM CD11b+Gr1+ cells (CD11b+Gr1+ myeloid cells) | dead cells among CD11b+Gr1+ cells ([2]; Bv8 300 ng/ml, 5 days) | number of dead cells in Lin- population ([2]; Bv8 for 5 days, 7AAD) | CD11b+Gr1+ cells arising in Lin- population ([2]; Bv8 for 5 days, vs controls) | MAPK pathway in CD11b+Gr1+ cells ([2]; data not shown) | CFU colonies from Lin- cells ([2]; p<0.05 vs control-treated cells) | tube formation in Matrigel (TIB42-TAEC cells)
1 |  | N.N.[Cl][Pt][Cl] [cisplatin] | significantly (p<0.05) increased |  |  |  |  |  |  |  |  |  |  |  | 
2 | dose-dependent stimulation | B1 |  | neither the anti-Bv8 Mabs nor Bv8 itself had any detectable effects | failed to stimulate the proliferation | strong induction of MAP kinase phosphorylation | ~2 | ~3 | promoted migration | fewer dead cells | significantly lower than controls | higher expression of CD11b+Gr1+ cells | activation of MAPK pathway in a time dependent manner | greater number of colonies | promoted tube formation
